Results as given in patent publication US20090214627.

T1: Peptide 1: Lys-Lys-His-Ala-Asp-Asp-Gly-Ala-Met-Pro-Met-Ser-Pro-Gly-Val-Ala (mutant IRS-1 peptide)
T1 chain: KKHADDGAMPMSPGVA

T2: Peptide 2: Arg-Thr-Glu-Ser-Ile-Thr-Ala-Thr-Ser-Pro-Ala-Ser-Met-Val-Gly-Gly-Lys-Pro (second IRS-1 peptide)
T2 chain: RTESITATSPASMVGGKP


Experiments:
[1] = test system: insulin receptor substrate-1 (IRS-1) peptide Y^608
[2] = target: T1, Peptide 1: …
[3] = target: T2, Peptide 2: …
[4] = target: insulin receptor substrate-1 (IRS-1) peptide Y^608; remark: listed apart in the source

Row | Molecule | IRS phosphorylation by BVR (32P kinase assay) [1] | peptide phosphorylation by BVR (32P retained on P81 filters) [2] | peptide phosphorylation by BVR (32P retained on P81 filters) [3] | IRS-1 phosphorylation by BVR (32P kinase assay) [4] | peptide phosphorylation by BVR (32P retained on P81 filters) [4] | phosphorylation of BVR by IRK in the presence of increasing molar ratio of IRS/BVR [4]
1 | GST-hBVR G17 mutant (GVGRA to GVARA), ATP binding domain mutant | G^17 mutation, for the most part, prevented IRS phosphorylation by BVR | – | – | – | – | –
2 | GST-hBVR fusion protein, wild type (human biliverdin reductase fused to glutathione-S-transferase) (protein) MNAEPERKFGVVVVGVGRAGSVRMRDLRNPHPSSAFLNLIGFVSRRELGSIDGVQQISLEDALSSQEVEVAYICSESSSHEDYIRQFLNAGKHVLVEYPMTLSLAAAQELWELAEQKGKVLHEEHVELLMEEFAFLKKEVVGKDLLKGSLLFTSDPLEEDRFGFPAFSGISRLTWLVSLFGELSLVSATLEERKEDQYMKMTVCLETEKKSPLSWIEEKGPGLKRNRYLSFHFKSGSLENVPNVGVNKNIFLKDQNIFVQKLLGQFSEKELAAEKKRILHCLGLAEEIQKYCCSRK | – | both the mutated and unmutated peptides were phosphorylated to about the same extent (1049±78 cpm and 1081±183 cpm respectively) | this peptide is also a suitable substrate for BVR (1198±230 cpm) | IRS-1 is a substrate for BVR | both the mutated and unmutated peptides were phosphorylated to about the same extent (1049±78 cpm and 1081±183 cpm respectively) | in the presence of increasing amounts of IRS, there was an increase in phosphorylation of BVR by IR up to equimolar ratio of IRS/BVR
